Data taken from publication PMC4072508, “Genome-Wide Prediction and Validation of Peptides That Bind Human Prosurvival Bcl-2 Proteins” (PLoS Computational Biology, 2014).

T1: Mcl-1, Q07820
T1 chain: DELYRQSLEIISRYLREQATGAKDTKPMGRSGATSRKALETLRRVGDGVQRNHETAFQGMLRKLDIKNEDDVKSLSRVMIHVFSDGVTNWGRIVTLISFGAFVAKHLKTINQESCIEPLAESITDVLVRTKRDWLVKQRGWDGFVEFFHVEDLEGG


Experiments:
Mcl-1, Q07820 = target: T1, Mcl-1, Q07820; test: peptide SPOT array, c-Myc-tagged receptor at 1 uM or 100 nM, anti-c-Myc-Cy3
Bcl-xL, Q07817 = test: as above
Bcl-xL, Q07817, sequence (Q07817 1-209): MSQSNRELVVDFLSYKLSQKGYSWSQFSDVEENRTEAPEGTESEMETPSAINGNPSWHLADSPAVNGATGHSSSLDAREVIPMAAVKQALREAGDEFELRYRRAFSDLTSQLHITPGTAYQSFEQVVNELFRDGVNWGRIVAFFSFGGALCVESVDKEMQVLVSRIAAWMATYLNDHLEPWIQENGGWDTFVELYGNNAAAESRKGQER

Binder | SPOT signal as a fraction of Bim BH3's signal on the same receptor and array (Mcl-1, Q07820) | SPOT signal as a fraction of Bim BH3's signal on the same receptor and array (Bcl-xL, Q07817)
CGDLASLSIDDWTLGEEVDGRRLVVA [BIRC6] | 0.02 | 0.02
SQGDKRVAFFMRKGLDCLSKWVGESE [ATAD2] | 0.03 | 0.06
DEHISYVATKVCHLLDQLEGVNTPRQ [EXOC5] | 0.02 | 0.02
IVGGCVVGIAMARFADFIRGMLKLIL | 0.18 | 0.25
VEQFSEASQQMAELSEVLVLRLENYE | 0.02 | 0.02
ALKKADVGFAMGIALTDVAKEASDII [ATP2B1] | 0.01 | 0.02
GLFSATSGVDLKYVLDTFGQEVRPVS [DDX7] | 0.02 | 0.02
LRCEMASTGEVACFLEGIHTAFLKAM [CPS1] | 0.03 | 0.02
RLAHEHHCLRIKILGDCYYCVSGLPE [ADCY8] | 0.02 | 0.03
SVRYYPSGDAFASGLDDATCRLYDLR [GNB5] | 0.02 | 0.02
VILADPDGHEICFVLDEAFRELSKMD [GLOD4] | 0.02 | 0.02
PSLSKELTSSLAGVLDVSFDSDSQFP [CRTC1] | 0.01 | 0.02
IVGGCVVGIADARFADFIRGMLKLIL | 0.14 | 0.15
FRFAQLCGLHIVIHADELEELMCYYQ [CLTCL1] | 0.02 | 0.02
PPDAHVLGKALEAALQDFSLDLRSTG [CIITA] | 0.02 | 0.01
ISDVQVFGYSDRFNADLLRSAVQQVN [DBC1] | 0.02 | 0.02
QRLINLVGESLRLLLNTFVALSDLRC [BAT3] | 0.03 | 0.08

Next, values leading:

SPOT signal as a fraction of Bim BH3's signal on the same receptor and array (Mcl-1, Q07820) | SPOT signal as a fraction of Bim BH3's signal on the same receptor and array (Bcl-xL, Q07817) | Binder
0.07 | 0.12 | AKFLLYLGHSLSTWLDRMWHFAVSVF [SLC40A1]
0.02 | 0.02 | AFTEREASEIDKSIGEAIQYLHSINI [MAPKAPK2]
0.02 | 0.02 | AALFLHAGCQDLTAGEDGKVQVWSGS [TEP1]
0.01 | 0.01 | GKPETCTGQDDADLGDRLRDWFQLLH [SPOCK2]
0.02 | 0.02 | SALETQVAAAVQALLDDYLAQLSLEP
0.02 | 0.02 | DLLGMVVVDEDHMLGDSHRGYLLELL [POLQ]
0.55 | 0.86 | GLTWDPVGKYIASQLDDRSLKVWRTL [HIRA]
0.05 | 0.04 | SAGVPVRGVELQAALERFARCFGRTD [TIGD7]
0.02 | 0.02 | ITVVGDVGGRIAIILDDIIDDVESFV
0.04 | 0.06 | SKFVILSAHKLVFILDTLTRQVTAQD [NEDD9]
0.02 | 0.01 | VFDDLRGSVSLSWVLDSTGVILVLTT [SORT1]
0.01 | 0.01 | AVLCVECGYKYRFFGEDAEIAARELN [MSH3]
0.02 | 0.02 | QLSKPGAALYLQSIGEGFKEAVQYVL [SOS1]
0.02 | 0.02 | VEQFSEASQQDAELSEVLVLRLENYE
0.02 | 0.02 | SHALICISHWDLGIGDRHLNNFMVAM [PRKDC]
0.02 | 0.03 | KNIAGALAFWMANALELLNFIKQDRD [MLLT4]
0.01 | 0.01 | IQQDLGCGASLGVILDNLLVTGGQGC
0.01 | 0.01 | SALETQVAAADQALADDYLAQLSLEP
0.01 | 0.01 | IQQDLGCGASDGVISDNLLVTGGQGC
0.02 | 0.02 | ITVVGDVGGRIAIIVDDIIDDVESFV
0.02 | 0.02 | VEQFSEASQQMAELLEVLVLRLENYE
0.03 | 0.02 | RHFVIRRGQVDREIAEEYGGVMVSFP [HDLBP]
0.02 | 0.03 | RIEMWISILEDNELGEYAAVELHQAK [KIF13A]
0.01 | 0.01 | LGLGELAGLTDANEADSLTYDIANNK [STRN]
